# Measured values from article PMC4838890, “Dynamic and flexible H3K9me3 bridging via HP1β dimerization establishes a plastic state of condensed chromatin” (Nature Communications, 2016).
# Assays:
# H3K9me3 peptide = target: T1, H3K9me3 peptide (Homo sapiens, UniProt P68431); assay: SPR, immobilized H3K9me3 peptide; assay type: binding; conditions: 0.1 µM hHP1β WT bound, 950 RU; 1 or 20 μM free H3K9me3, 20 μM H3K9me0 peptide
# T1 construct: C-terminally biotinylated histone H3 peptides (aa 1–20)
# Procedure: SPR measurements were performed on a Biacore 2000 instrument (GE Healthcare, Buckinghamshire, UK) at 298 K in 10 mM triethanolamine (pH 7.5), 150 mM NaCl, 0.1 mM EDTA, 1 mM DTT, 0.005% (v/v) Tween-20. Biotinylated ligands were immobilized on streptavidin-coated sensor chips SA (GE Healthcare, Buckinghamshire, UK). Before immobilization, sensor chips were conditioned as described by the manufacturer. To obtain low surface densities (5–24 RU), 5 nM biotinylated H3 peptide was injected at a low rate of 10 μl min^−1 using varying contact times. High surface densities (>700 RU) were prepared by injecting […] peptide (10 μl min^−1) until the SA surface was saturated. Peptide-containing chips were regenerated by applying three short pulses of 0.05% (w/v) SDS followed by an injection of 1.5 M NaCl for baseline stabilization. For binding assays, hHP1β proteins were injected at […] (serial twofold dilutions) for 2 min (30 μl/min). Dissociation was recorded for up to 5 min. A streptavidin surface without ligands served as reference. In addition, blank runs were performed for double referencing. Data evaluation was performed by steady-state analysis assuming a Langmuir 1:1 binding model using BIAevaluation 4.1 and Prism 5.04 (GraphPad, CA, USA) software. Binding to the unmodified peptides was analysed with maximum binding (RUmax) set to the corresponding values obtained with the modified peptides.
# Figure S8 Hiragami-Hamada et al.
# 20 30 one site-specific 20 30 one site-specific […]
# time [s] concentration [ μM] time [s] concentration [ μM]
# 40 two site-specific 40 one site-specific […]
# time [s] concentration [ μM]
# Supplementary Figure 8: hHP1β binds nucleosomes as dimer.
# (a) Dynamic light scattering (DLS) analysis of recombinant hHP1β WT (blue) and I161A (red).
# (b) SPR response traces of injection of hHP1β WT into Biacore cells containing biotinylated H3K9me3-peptide immobilized on a sensory chip via covalently coated streptavidin. Immobilized peptide was at 24
# RU. Injection series are from 0.024 to 50 µM protein concentration.
# (c) Blot of signal over concentration of the titration in (b) to deduce an apparent Kd value. Best fitting was achieved by one site-specific binding model.
# (d ) Same analysis as in (b) but with hHP1β I161A.
# (e) Blot of signal over concentration of the titration in (d) to deduce an apparent Kd value. […]
# (also on this page, place not known: dimer . hHP1 β H3K9me3 - se nsory ( b) site -specific ( b) hHP1 β ( d) site -specific hHP1 β modifi ed H3K9me3 -mononucleosomes H3 -tails -30 -50 -8 -4 200 -10 110 -50 -10 -30 [μM] [μM] -10 190 150 -10 110 200 -10 110 μl/min μl/min μl/min -50 150 response [RU] response [RU] response [RU] response [RU] response [RU] [μM] 10 50 response [RU]40 0 0 [μM] 10 30 50 response [RU] 40 0 0 40 [μM] 10 30 50 response [RU] 140 40 0 120 0 40 response [RU] response [RU] response [RU] Kd Kd μM Kd μM 0.8 0.6 0.4 0.2 0 1 1.0 0.8 0.6 0.4 0.2 0.0 mass fraction)
# H3K9me3 oligonucleosomes [1] = assay: Chromatin sedimentation (clustering), H3K9me3 oligonucleosomes; assay type: biochemical, Xenopus laevis; conditions: 150 mM NaCl, saturating protein (5 μM) or titration, EtBr fluorescence, n=3
# Procedure: Figure 3 hHP1β clusters oligonuclesomal arrays in dependence of H3K9me3. (a) Oligonucleosomes (2.5 nM) were incubated with increasing concentrations of hHP1β WT or I161A at 150 mM NaCl. DNA remaining in the supernatant after centrifugation was incubated with EtBr and measured by fluorescence reading. Data were normalized to amounts in absence of added protein. Averages of three independent experiments are plotted; error bars represent s.d.; n=3. (b) Analysis of the hydrodynamic radius of oligonucleosomes (10 nM; DNA labelled with ATTO 610) in the presence of increasing concentrations of hHP1β WT or I161A by FCS at 150 mM NaCl. For details on experimental setup see Supplementary Fig. 3. Error bars represent s.d.; n=3. (c) Oligonucleosomes were reconstituted after mixing H3K9me0 and H3K9me3 octamers at different ratio. Chromatin precipitation analysis at 150 mM NaCl was carried out with hHP1β WT at saturating concentration. Data are presented as in a. (d) Precipitation behaviour of oligonucleosomes (2.5 nM) was analysed at different concentrations of NaCl with hHP1β WT at saturating concentration. Data are presented as in a. (e) H3K9me3-containing chromatin was reconstituted using wild-type core histones or tailless H2A, H2B or H4. Oligonucleosomes (2.5 nM) were incubated with increasing concentrations of hHP1β WT at 150 mM NaCl. Data are presented as in a. (f) Chromatin coprecipitation of hHP1β with H3K9me3-containing oligonucleosomes reconstituted with wild-type or tailless core histones at the indicated concentrations of MgCl2. Precipitated material was analysed by western blotting. The region of the western blot membrane of the experiment at 7.5 mM MgCl2 containing histones was stained with Ponceau. (g) Oligonucleosomes at 50 mM NaCl were incubated with hHP1β WT or I161A. Complexes were fixed with 0.05% (v/v) glutaraldehyde, spotted on mica surfaces and analysed by scanning force microscopy. Control, no protein added; scale bar, 100 nm. (h) Quantification of results representatively shown in g according to the classification on the top: A, extended; B, partially condensed; C, fully condensed; D; aggregates; n>50 for each condition.
# For saturating conditions, 2.7 nM oligonucleosomes were incubated with 5 μM hHP1β proteins in 100 μl sedimentation buffer (10 mM triethanolamine (pH 7.5), 150 mM NaCl, 0.1 mM EDTA) for 1 h on ice. For non-saturating conditions, 3 μM recombinant proteins were used and the NaCl concentration in the sedimentation buffer was lowered to 100 mM. After incubation, 40 μl per sample was placed into a well of a 96-well plate and kept as ‘input'. The rest was centrifuged at 16,100g for 30 min at 4°C. 40 μl supernatant was carefully removed and placed into a 96-well plate (‘output'). For quantification of chromatin DNA, the input and output samples were incubated with 40 μl 0.5 μg ml^−1 ethidium bromide and fluorescence was measured on a Plate CHAMELEON II fluorescence plate reader (Hidex, Turku, Finland) using a 360 nm (±5 nm) excitation filter and a 612 nm (±5 nm) emission filter. For each sample the ratio of DNA concentrations after and before centrifugation (output/input) was calculated.
# Supplementary Table 1: Summary of conditions used in the different experiments of this study. experiment result modification template Temp. [NaCl] [MgCl2] […]
# chromatin Fig. 1e,f; Fig. S1f-h; H3K9me3 oligo- 4 150 5 coprecipitation Fig. S2b nucleosomes
# Fig. S7d,f; Fig.S9c nucleosomes […]
# chromatin sedimentation Fig. 4a; H3K9me3 oligo- 4 150 0
# (single point) Fig. S3b nucleosomes […]
# chromatin sedimentation. oligo-(titration) Fig. 3a H3K9me3 nucleosomes 4 150 0 […]
# crosslinking Fig. S6e,f nucleosomes […]
# crosslinking Fig. S7a,b nucleosomes
# EMSA Fig. 1g; Fig. 5c; n//a RT 100 5
# 1Preincubation of oligonucleosomes and h HP1β was performed at 4 °C . Measurements wer e carried out at the in dicated te mperature.
# 2in increments o f 0 .5 mM
# 3MgCl2 was added at the end of incubation to coprecipitate oligonucleosomes a nd bound hHP1β.
# [2] = tested on: chromatin reporter array in U2OS cells; assay: Chromatin reporter array (LacO) unfolding; assay type: cell-based; conditions: doxycycline 1 μg ml^−1 24 h, LacI-tethered, n>300
# Description: Figure 7 hHP1β dimerization is required for maintaining condensed cellular chromatin states. (a) Schematic diagram of the transgene system used to test chromatin compaction effects of hHP1β. A tandem array of the construct has been integrated into the genome of U2OS mammalian cells. Dox, doxycycline; rtTA, reverse tetracycline-controlled TET-VP16 transactivator, whose binding to tetracycline responsive elements (RE) is activated by doxycycline. (b) Together with mCherry-LacI, the indicated fusion proteins were transiently expressed in U2OS cells containing the chromatin reporter array as described in a. Representative confocal images in the absence or after induction of transcription from the array with doxycycline (Dox) are shown. DNA was stained with DAPI. Inlets show enlarged chromatin reporter array; scale bar, 10 μm. (c) Quantification of the results shown in b together with results of similar experiments using additional hHP1β mutant proteins. Averages of three independent experiments are plotted; error bars represent s.d.; n>300 for each condition; asterisks represent P<0.05 according to Student's t-test.
# U2OS 2-6-3 CLTon cells[38] were kindly provided by Dr Supriya Prasanth (University of Illinois, IL, USA) and maintained in DMEM (high glucose+GlutaMax) (GIBCO/Invitrogen, Darmstadt, Germany) supplemented with 10% (v/v) TET system approved fetal bovine serum (Clontech, Saint-Germain-en-Laye, France), 50 μg ml^−1 hygromycin (Carl Roth, Karlsruhe, Germany) and 200 μg ml^−1 G418 (Clontech, Saint-Germain-en-Laye, France). For fluorescence microscopy, cells were grown on coverslips in a six-well plate without antibiotics. 500 ng plasmid DNA was transfected using Lipofectamine LTX and Plus reagent (Invitrogen, Darmstadt, Germany). 20 h post transfection, cells were treated with 1 μg ml^−1 doxycycline for 24 h for induction of rtTA expression. Cells were washed twice with PBS and fixed with 3.7% (v/v) formaldehyde/PBS for 10 min at RT. […] P values (according to Student's t-test) were calculated using GraphPad QuickCals (GraphPad, CA, USA).
# H3K9me3 oligonucleosomes [3] = assay: Chromatin coprecipitation, H3K9me3 oligonucleosomes; assay type: binding, Xenopus laevis; conditions: 6.7 nM oligonucleosomes, 1 μM protein, 150 mM NaCl, 5 mM MgCl2, 1 h on ice
# Procedure: 6.7 nM oligonucleosomes were incubated with 1 μM recombinant protein in 100 μl binding buffer (10 mM triethanolamine (pH 7.5), 150 mM NaCl, 5 mM MgCl2, 0.1 mM EDTA, 0.1% (v/v) Triton-X100) for 1 h on ice. Precipitated chromatin complexes were recovered by centrifugation at 16,100g for 30 min at 4°C. Pellets were washed once with 0.5 ml binding buffer and centrifuged for 15 min at 4 °C. Precipitated material was resuspended in 10 μl 1 × SDS loading buffer and boiled for 5 min before running on SDS–PAGE.
# Supplementary Table 1: Summary of conditions used in the different experiments of this study.
# experiment result modification template Temp. [NaCl] [MgCl2]
# chromatin Fig. 1e,f; Fig. S1f-h; H3K9me3 oligo- 4 150 5
# mouse fibroblasts = assay: Subnuclear distribution of EGFP fusion proteins; assay type: cell-based; conditions: GFP fusions transiently expressed, n >100
# Description: Supplementary Figure 11: Subnuclear distribution of hHP1 β wild type and mutant proteins .
# (a) The indicated proteins fused to EGFP were transiently expressed in mouse fibroblast cells.
# Representative fluorescence confocal images are shown. DNA was stained with DAPI. Scale bar […]
# (b) Quantification of the subnuclear distribution of the hHP1β WT and mutant proteins analyzed as in ( a) by visual inspection. EGFP signal in each transfected cell was categoriz ed into ‘dotted’ (see WT distribution in panel a) or ‘diffuse’ (see distribution of I161A in panel a). n >100 for each condition.
# (1 picture or pasted object on this page, not shown here)
Substance,competition of residual hHP1β WT SPR signal by free H3 peptide (H3K9me3 peptide),"chromatin clustering/aggregation, H3K9me3 (H3K9me3 oligonucleosomes [1])",unfolding of the array on activation [2],recovery with H3K9me3 oligonucleosomes (H3K9me3 oligonucleosomes [3]),subnuclear distribution (mouse fibroblasts)
H3K9me0: free unmodified H3 tail peptide used as competitor [reference compound],competed specifically with free H3K9me3 peptide ligand but not H3K9me0,–,–,–,–
H3K9me3 peptide: free H3K9me3 tail peptide used as competitor [reference compound],competed specifically,–,–,–,–
"hHP1β W42A: CD point mutant of hHP1β, abolishing H3K9me3 binding",–,failed to cluster oligonucleosomes,behaved very similar to the WT protein,loss of recovery of hHP1β with H3K9me3 oligonucleosomes,diffuse distribution
